Measurements: US5876948 (The Children's Medical Center Corporation, dated 1999)
Bridge positions count the residues as written; N and C are the ends. Square brackets hold non-standard residues; d marks the D form. Ends that are not written are not given here. NMeF = CN[C@@H](Cc1ccccc1)C(=O)O; pGlu = O=C1CC[C@@H](C(=O)O)N1; Sar = CNCC(=O)O

B1: Sub P, Methyl Ester (peptide)
peptide: RPKPQQFFGLM-OMe
B2: [pGlu^5, Me-Phe^8, Sar^9]-Sub P (5-11) (peptide)
peptide: [pGlu]QF[NMeF][Sar]LM
modifications: ends and bridges not checked
B3: Sub P (6-11) (peptide)
peptide: QFFGLM
B4: Substance P (1-7) (peptide)
peptide: RPKPQQF
B5: Sub P (7-11) (peptide)
peptide: FFGLM
B6: [Cys^3,6, Tyr^8, Pro^9]-Sub P (peptide)
peptide: RPCPQCFYPLM
modifications: disulfide 3-6; ends not checked
B7: Sub P, Free Acid (peptide)
peptide: RPKPQQFFGLM-OH
B8: Substance P (peptide)
peptide: RPKPQQFFGLM-NH2
B9: [Nle^11]-Sub P (peptide)
peptide: RPKPQQFFGLX
modifications: nor-leucine at position 11

Target: β-amyloid peptide β1-40 (polypeptide corresponding to the first 40 amino acids of β-amyloid)
Experiment: cell-based or functional assay

| Binder | Therapeutic Efficacy (%) |
| --- | --- |
| B1 | 71% |
| B2 | 41% |
| B3 | 65% |
| B4 | 82% |
| B5 | 41% |
| B6 | 53% |
| B7 | 53% |
| B8 | 100% |
| B9 | 77% |
